Several values for one entry are separate records, joined by “and”; a condition that tells them apart may be missing. Identical values can stand only once.
Columns and labels:
[1] = biological target: T1, FLT3 (Fms Related Receptor Tyrosine Kinase 3) (human, UniProt P36888 27-993); test: flow cytometry on REH cells, median fluorescence intensity against concentration, four-parameter fit, goat anti-human Fc FITC detection
T1 construct: whole, on cells; The target is endogenous FLT3 on human leukemia cell lines; also called human FLT3; FLK2
Description: (§1) REH cells were incubated with varying concentrations (10⁻¹ to 10⁴ ng/mL) of the IgG1 or scFv molecules diluted in FACS buffer (hereinafter referred to simply as “buffer,” phosphate buffered saline (PBS) (Caisson Labs, no. PBL06)+2% BCS (GE Healthcare, no. SH30073.04)+1 mM EDTA (Invitrogen, no. 15575020)) in a final volume of 100 μL, in triplicate, for 30 minutes at 4° C. Cells were washed three times with buffer and incubated with secondary antibodies. IgG1 was detected with 1:200 goat anti-human Fc FITC (Jackson) secondary antibody and scFv was detected with anti-His FITC (1:200) secondary antibody. Secondary antibodies were incubated in 100 μL final volume in triplicate for 30 minutes at 4° C. Cells were washed once with buffer and resuspended in 200 uL buffer+1:100 7-AAD Viability Staining Solution (Biolegend, no. 420404), and analyzed by flow cytometry. Flow cytometry acquisition was performed with a Beckman Coulter CytoFLEX (Beckman Coulter), and analysis was performed with FlowJo (Treestar Inc, Ashland, OR). Plots show median fluorescence intensity of REH cells versus concentration of the primary antibody used. Variable slope (four parameters) curve was fit to the data and EC50 was used to compare binding affinities.

[2] = biological target: T1, FLT3 (Fms Related Receptor Tyrosine …); test: flow cytometry on REH cells, median fluorescence intensity against concentration, four-parameter fit, anti-His FITC detection
Description: as §1

[3] = biological target: T1, FLT3 (Fms Related Receptor Tyrosine …); test: flow cytometry on REH cells, anti-human IgG Fc Alexa Fluor 488 detection, with or without 10 nM FLT3L pre-incubation
From the text: Cells were then stained with various concentrations of the chimeric monoclonal antibody prepared in flow buffer. Cells were washed five times with flow buffer and stained with anti-human IgG Fc antibody conjugated to Alexa Fluor 488 (Jackson Immunoresearch Laboratories, 109-545-008). Cells were stained with 7-AAD (7-AAD Viability Staining Solution, Biolegend 420404) followed by flow cytometry analysis.

B1: fully humanized anti-human FLT3 monoclonal IgG1, clone hum 1-18BA-v1 (antibody, V domains shown)
VH: QVTLKESGPTLVKPTQTLTLTCTFSGFSLSTSTMGVGWIRQPPGKALEWLAHILWNDSKRYNPSLKSRLTITKDTSKKQVVLTMTNMDPVDTATYYCARIVYYSTYVGYFDVWGQGTTVTVSS
VL: DIQMTQSPSSLSASVGDRVTITCRASQEISGYLSWLQQKPGKAIKRLIYAASTLQSGVPSRFSGSRSGSDYTLTISSLQPEDFATYYCLQYASYPFTFGQGTKLEIK
notes: also called humanized anti-FLT3 IgG; IgG1 molecule
[1]
  EC50: 0.0621 µg/mL and 0.41 nM

B2: his-tagged scFv, clone hum 1-18BA-v1 (SEQ ID NO: 4 with a His tag on the C terminus) (scFv)
scFv: DIQMTQSPSSLSASVGDRVTITCRASQEISGYLSWLQQKPGKAIKRLIYAASTLQSGVPSRFSGSRSGSDYTLTISSLQPEDFATYYCLQYASYPFTFGQGTKLEIKGGGGSGGGGSGGGSGGGGSQVTLKESGPTLVKPTQTLTLTCTFSGFSLSTSTMGVGWIRQPPGKALEWLAHILWNDSKRYNPSLKSRLTITKDTSKKQVVLTMTNMDPVDTATYYCARIVYYSTYVGYFDVWGQGTTVTVSS
notes: also called humanized anti-FLT3 scFv; scFv molecule; not shown: C-terminal His tag
[2]
  EC50: 0.0854 µg/mL and 3.42 nM

B3: chimeric antibody 1-18BA (mouse VL and mouse VH, human IgG) (antibody, V domains shown)
VH: QVTLKESGPGILQPSQTLSLTCSFSGFSLSTSTMGVGWIRQPSGKGLEWLLHILWNDSKYYNPALKSRLTISKDTYNKQVFLKIANVDTADTATYYCARIVYYSTYVGYFDVWGAGTTVTVSS
VL: DIQMTQSPSSLSASLGERVSLTCRASQEISGYLSWLQQKPDGTIKRLIYAASTLHSGVPKRFSGSRSGSDYSLTISRLESEDVADYYCLQYASYPFTFGSGTKLEIK
notes: these appear to be the numbers of US 20190389955; also called chimeric anti-FLT3 antibody; cAb1977-10.0
[3]
  binding result: binds

— patent publication US20240216432A1 (HEMOGENYX PHARMACEUTICALS, published 2024)
